A short description of the series: soluble on expression in E. coli; label from the status in PepcDB or PDB records.
Consider “GPGSMPTLAVAKDYICRLIGKSYTDEEFSDLCFQFGLELDDITSEKEMFMREQGKSAKANVAPAEAPAHLSEEKLYKIDTPANRHDLLTAEGMACALRVFMGTMPLPNYRVLNRASPLYRMSVEKSVKNVRDYVVCAVLRNIHFNERSYNSFIDYQERLHAGLARRRTLASVGTHDLDKVNTTDFIFACRPRETVRFVPLRQTRELNCAGDGLAQYYAEDRHIGKYVPLISSFPTYPVVYDGTGQNVLSLPPIINSHYSAISVDTRNIFIECTAPDHYKAQVLVNQLVCAFSVYCEDPFTVEAVQVNYEEPTPDGTRSLVTPTMETKEMTMNIERLNSIIGIKMKSGAECAQLLKMMMYTIKETTESEVTVTVPPMRTDVIGVADVMEDVAIAYGYDNITYVECKTHGPVTQTPLSKVAQLLRTEMACAGYTELLTLSLCSRADAFESLGRVDNDVAAHIANPQTMEFQVCRPSLLPGILKTLATNKSKPLPQRFFECADVVLLDNERNFPPVLELKTDYASCGARNQRHLAAAHCNGSSSGFESIHGLTELALLKLGVPSKAAIADDYEGDYYTLEKGEDGAFFPGRAMDIILHRAGQAVRIGHLGVIHPNTLKAYDIPSPCSYMELNIQFLCVPL”, for which the “soluble on expression in E. coli” value was “not soluble”. Consider “GPGSMSSIEELKVVRLFRALNTMIQLCHDRGYVIRHPSAIAEAVQNPELYNNEEGLDHDWFLRHFVISPDRAARSIRAKQRGDGSSRSGPRREAKNEEDGGDADKPGEYDVAADEDEALRRAANGEWVCMRNAMRLTCSVDPRRATLASSVLTGAPTNKAPSSAPAVTAEPKDDDGDVPYAVAAAAVDAKSKEKAAKNALMVFFSGSPKLSMKEVHSFREKALKKKASSMIVVTNKIDPGVRMDVQELSGRMDEATGAELLSIQVFEEEALAFNVVRHETVPRHVALTPAEAEAFLAERKLNVAQLPRMQESDPLVQYLGLQRGSIVHITREGKQSGPYSMYRHVI”, for which the “soluble on expression in E. coli” value was “soluble”. As to “PVDCSVIVVNKQTKDYAESVGRKVRDLGMVVDLIFLNTEVSLSQALEDVSRGGSPFAIVITQQHQIHRSCTVNIMFGTPQEHRNMPQADAMVLVARNYERYKNECREKEREEIARQA”, the “soluble on expression in E. coli” value is recorded as “soluble”.

As to “MGSDKIHHHHHHMRHELDNPHAHATNNPCIRCLRHADRYARAVVSMLEVFASDKAEAKHNLFLKEGLCDIDKTLRSNDKRDTLRERPRNQTSSAMTLSPEKRARVMQGEILIDLNWLPDGVIGAKGSVFVEAEPPVVWRMLTDYDHLHETMPKVISSRLLETNNQTRIIAQSGKSGIFIFEKTVNFTLKVEEVFPEHLWFSQIGGDFQVYEGEWQLEAVEGKNGHATLLSYQAEIKPDFFAPQFVVSFVQSQDLPTILRAIRSYCEARAKG”, the “soluble on expression in E. coli” value is given as “not soluble”. With “TPVSEKQLAEVVANTVTPLMKAQSVPGMAVAVIYQGKPHYYTFGKADIAANKPVTPQTLFELGSISKTFTGVLGGDAIARGEISLDDPVTRYWPQLTGKQWQGIRMLDLATYTAGGLPLQVPDEVTDNASLLRFYQNWQPQWKPGTTRLYANASIGLFGALAVKPSGMPYEQAMTTRVLKPLKLDHTWINVPKAEEAHYAWGYRDGKAVRAVRVSPGMLDAQAYGVKTNVQDMANWVMANMAPENVADASLKQGIALAQSRYWRIGSMYQGLGWEMLNWPVEANTVVEGSDSKVALAPLPVAEVNPPAPPVKASWVHKTGSTGGFGSYVAFIPEKQIGIVMLANTSYPNPARVEAAYHILEALQ”, the “soluble on expression in E. coli” value is “soluble”. As for “DIKMTQSPSSMYASLGERVTITCKASQDINSYLNWFQQKPGKSPKTLIYRTNRLVDGVPSRFSGSGSGQDYSLTISSLEYEDMGIYYCLQYDEFPYTFGSGTKLEIKRTVAAPSVFIFPPSDEQLKSGTASVVCLLNNFYPREAKVQWKVDNALQSGNSQESVTEQDSKDSTYSLSSTLTLSKADYEKHKVYACEVTHQGLSSPVTKSFNR”, the “soluble on expression in E. coli” value is listed as “soluble”. As to “MANRKYFGTDGVRGKVGAYPITPDFALKLGWAAGKVLASQGSKMVLIGKDTRISGYMLESALEAGLAAAGLSAAFTGPMPTPAIAYLTRTFRAEAGIVISASHNPYYDNGIKFFSAKGTKLPDEIEEAIEAMLEQPMDCVESAELGKASRINDAAGRYIEFCKGTFPAHLGLEGYKIVVDCANGATYHIAPNVLRELGAEVIEIGTDPNGLNINEKCGATDVTALQAKVVETKADVGLAYDGDGDRIMMVDHLGNKVDGDQILFIIAREALRSGQLKGGVVGTLMSNMSLEIALKMLGVPFLRANVGDRYVLEKMVENDWTLGGENSGHIIIADKNTTGDGIVASLAVLAAMAQHKLSLNELASAVKLFPQVLINVRFAGGENPLESDAVKSVAAEVEKRLEGKGRILLRKSGTEPLIRVMVECQDAELAQQCAEEIAEAVKKIN”, the “soluble on expression in E. coli” value is “not soluble”. With “MGSDKIHHHHHHGCNQSSKSDTKKEVTSKVGTYASVDCSTFTKSKDLPKGASCGYLTVPEKHAIKGQSASKKTMEIAVLKIPATKTEAKADPVVYLQGGPGYSAIDSLEDFTQSKAKYLWNDRDFYLVDQRGTGHAKPAYKCTEFNTVKGSIEQVKACKARLKAKGVDFSAYQSVQSAHDFIMLRKALKLDSWNLYGASYGTRLAETIIREDSQGVRSVILDGVFPIEVNGLSDTPWATYATLDRIVANCDASINCASEILKPMIESIIERLQNQGEEQAAIRFVNYIASLAGDARVVPLILAIDKDLNIIINEKDNEEAEGYFAPMALSVVCAEEYAFLNQTALEGRNDKNWSTTTTLTVNKMFHEGFDIDSCKAWDVAAADSIETQAVTSNLPILVINGGNDHQTPPAWGELVVKNMPNAQLFTNPQGGHVQLTSQNPYRNCIDGITMAFLAAPDQKIKTQCTSMIPVFKYN”, the “soluble on expression in E. coli” value is reported as “not soluble”. The value for “MDGRPLNRTTRAVAMIAVTIPAHNEQALIGPCLQSIRVAAQHPALQGEAVEIHVALDRCTDQTGVIARAHGAITQEVCGGVGVARAAAASAAIARGAHWLACTDADTRVPPDWLMAQLACAADAFCGVVEVTDWRDHLSQTRAAFLASEIRHDGHPHVHGANLGMRTSAYLAAGGFSNASSSEDVALVAALEQAGMRIARLASPVVNTSARRSARASGGFADYLLRLEAALLAASPSLGLEHHHHHH” was “not soluble”; that for “MSFLVLPPEVNSALMFAGAGSGPTLAAAAAWDGLAAELGQAANSFSSATAALADTAWQGPAATAMAAAAAPYASWLSTAATRALSAAAQAKAAAAVYEAARAATVDPLLVAANRHQLVSLVLSNLFGQNAPAIAATEAAYEQLWAADVAAMVSYHSGASAVAAQLAPWAQAVRALPNPTAPALASGPAALAIPALGIGNTGIGNIFSIGNIGDYNLGNGNTGNANLGSGNTGQANLGSGNTGFFNFGSGNTANTNFGSGNLGNLNLGSGNDGNGNFGLGNIGDGNRGSGNVGSFNFGTANAGSFNVGSANHGSPNVGFANLGNNNLGIANLGNNNLGIANLGNNNIGIGLTGDNMIGIGALNSGIGNLGFGNSGNNNIGLFNSGNNNIGFFNSGDSNFGFFNSGDTNTGFGNAGFTNTGFGNAGSGNFGFGNAGNNNFGFGNSGFENMGVGNSGAYNTGSFNSGTLNTGDLNSGDFNTGWANSGDINTGGFHSGDLNTGFGSPVDQPVMNSGFGNIGTGNSGFNNSGDANSGFQNTNTGAFFIGHSGLLNSGGGQHVGISNSGTGFNTGLFNTGFNNTGIGNSATNAAFTTTSGVANSGDNSSGGFNAGNDQSGFFDG” was “not soluble”; that for “MKKVLIANRGEIAVRIIRACRDLGIQTVAIYSEGDKDALHTQIADEAYCVGPTLSKDSYLNIPNILSIATSTGCDGVHPGYGFLAENADFAELCEACQLKFIGPSYQSIQKMGIKDVAKAEMIKANVPVVPGSDGLMKDVSEAKKIAKKIGYPVIIKATAGGGGKGIRVARDEKELETGFRMTEQEAQTAFGNGGLYMEKFIENFRHIEIQIVGDSYGNVIHLGERDCTIQRRMQKLVEEAPSPILDDETRREMGNAAVRAAKAVNYENAGTIEFIYDLNDNKFYFMEMNTRIQVEHPVTEMVTGIDLVKLQLQVAMGDVLPYKQEDIKLTGHAIEFRINAENPYKNFMPSPGKIEQYLAPGGYGVRIESACYTNYTIPPYYDSMVAKLIIHEPTRDEAIMAGIRALSEFVVLGIDTTIPFHIKLLNNDIFRSGKFNTNFLEQNSIMNDEG” was “soluble”.

Turning to “GSDITSLYKKAGSEMNGPRCPVQTVGQWLESIGLPQYENHLMANGFDNVQFMGSNVMEDQDLLEIGILNSGHRQRILQAIQLLPKMRPIGHDGYHPTSVAEWL”, the “soluble on expression in E. coli” value was “soluble”. For the sequence “EFIHGVYVDTSLHRNFVNLQQASLMAEGGVTGGISLLRNLRTSGNDQGLQQLLADPVQFEDEKGRVSITIEEEDGKLNLNAVTLPNGDEHVFYGPAERRLLTALKLPTALHDSLADWLDANDEPRPDGGESAYYQSLSAPYAPRNAPFATFGELGLVRGVEPAVLERLRPFATVFVDGGAINVNTAPLQVLMALDEGISEGIARDIMQRRRIKPFKSVGELSEIPGMETIAGKLSGFAGARGSTYRLVSRAAVGDVTRLVEAVVNLDGTQPRYLY”, the “soluble on expression in E. coli” value is “not soluble”. With “MGSDKIHHHHHHMRDNMSRLEDLEAFIHIAESGSLTRAATRLNRSLQAVSRSLTSLEVDVGLQLVHRTTRHSALSEAGQAFYRRVKPAVLEIREAQLEAAGRRTGPSGILRVGAPMLFGPDFLVPIVAEYIESYPQAEVDLSLTDAFVDLASKGIDVVVRIADLPDSNLQSKRLGALRRVVFGAPSYFARNGRPEHPAELRQHACIVRTIGNRPGQWAFQIDGKRRMVGVRGSFRSNAMAAIYSAVRSGLGLGYSPLWQIRHLVDAGQVEIVLQEFEPKPVPIHALWQESTRPPAKVRAFVDLLAMRLRLDDL”, the “soluble on expression in E. coli” value was “not soluble”. “MSTPVLELRGIVKTFGATRALDGASLRVAAGSVHGLVGENGAGKSTLIKVLAGIHRPDAGSLLLDGQPHGHFSPRQVERLGIGFIHQERLLPARFTVGEALFFGHERRFGPLLDRRSQQREAARLLDDYFGLRLPANALIGELSSAEQQMVQIVRALLIKPRVLVFDEPSVALVQREVERLLRIVQRLRDDGLAIVYISHYLQEIEALCDRVTVLRNGRDVAEVSPRNTSLEQITRLMVNREVGELYPKVAVPAGALLLDVRGLGRARAYQGIDLQVRRGEIVGLTGLVGSGAKELLRSLFGLAPPDSGEVRLDGQPLSLRSPREAVAQGVALMPEERRRQGVALDLSVQENTTLAALSRFVRLGLLSPARERHTTLELIERLRIKAHGAHAKVRQLSGGNQQKVALAKWFARCSSLYLLDEPSVGIDVGAKVEIYRLIGELVKEGAGVLILSSDLPELIGLCDRIHVMHRGAIAARFAAGEANSDRLLAVATGAQRAQNEERPFYAYAIAI”: the “soluble on expression in E. coli” value is “not soluble”. As to “MSLKKYTMNEMVDITKDMLNKRGVMIEDIARIVQKLQEKYNPNLPLSVCMENVEKVLNKREIIHAVLTGLALDQLAEQKLLPEPLQHLVETDEPLYGIDEIIPLSIVNVYGSIGLTNFGYLDKEKIGIIKELDESPDGIHTFLDDIVAALAAAAASRIAHTHQDLQDEEKEQDEKPVVSEGGSHHHHHH”, the “soluble on expression in E. coli” value is reported as “soluble”.

Source of the values: the DeepSol protein solubility set.
